Assays:
[1] = target: P-Selectin ligand on HL60 cells and human neutrophils (human); assay: flow cytometry, staining of HL60 cells
[2] = target: P-Selectin-IgG REKDV mutant (human) (UniProt P16109); assay: capture ELISA
PE-1 chimera (human) = PE-1 chimera (human) (UniProt P16581); assay: capture ELISA, mAb coated
[3] = target: E-Selectin-IgG chimera (wild type) (human) (UniProt P16581); assay: capture ELISA, mAb coated
[4] = target: P-Selectin-IgG chimera (human) (UniProt P16109); assay: capture ELISA, mAb coated

Row | Substance | % cells positive [1] | MFI [1] | percent of control P-Selectin-IgG binding [2] | O.D. 450 (PE-1 chimera (human)) | O.D. 450 [3] | O.D. 450 [4]
1 | P-Selectin-IgG chimera (from UniProt P16109) (Fc fusion) | 97% | 416 MFI | – | – | – | –
2 | mAb AC 1.2 (antibody) | – | – | 70% | 0.1 O.D. 450 | 0 O.D. 450 | 2.8 O.D. 450
3 | mAb AK-6 (CLB-thromb/6) (antibody) | – | – | 70% | 1.7 O.D. 450 | 0 O.D. 450 | 1.3 O.D. 450
